Molecular target: the molecule itself
Test: SEC + other: dynamic light scattering; His-tag Bfr (alone or in ratios with WT Bfr) declustered at pH 2.0, incubated with Pro-Q Sapphire 365 NTA dye and Ni2+, reclustered by dialysis to pH 7.0 (methods: pH 8.0), then size exclusion

B1: His-tagged Escherichia coli bacterioferritin (C-terminal His-tag) (natural protein)
chain: not shown
notes: Escherichia coli bacterioferritin (Bfr) subunit; the gene coding for E. coli Bfr was cloned; also called His-tag Bfr; His-tagged Bfr; source: details in Supplementary Materials; not shown: His6 (after a two amino acid linker Leu-Glu), C-terminal, kept; copies: 24
stoichiometry N: 24

Reference: paper PMC10301331, “Molecular Engineering of E. coli Bacterioferritin: A Versatile Nanodimensional Protein Cage” (Molecules, 2023)
